Like-named read-outs stand apart in the source and are kept apart here. Bridge positions count the residues as written; N and C are the ends. Square brackets hold non-standard residues; d marks the D form. Ends that are not written are not given here. 1Nal = N[C@@H](Cc1cccc2ccccc12)C(=O)O; Sar = CNCC(=O)O

The target in experiment [1] is T1, human EPO-R (human, UniProt P19235 25-508).
T1 sequence (looked up): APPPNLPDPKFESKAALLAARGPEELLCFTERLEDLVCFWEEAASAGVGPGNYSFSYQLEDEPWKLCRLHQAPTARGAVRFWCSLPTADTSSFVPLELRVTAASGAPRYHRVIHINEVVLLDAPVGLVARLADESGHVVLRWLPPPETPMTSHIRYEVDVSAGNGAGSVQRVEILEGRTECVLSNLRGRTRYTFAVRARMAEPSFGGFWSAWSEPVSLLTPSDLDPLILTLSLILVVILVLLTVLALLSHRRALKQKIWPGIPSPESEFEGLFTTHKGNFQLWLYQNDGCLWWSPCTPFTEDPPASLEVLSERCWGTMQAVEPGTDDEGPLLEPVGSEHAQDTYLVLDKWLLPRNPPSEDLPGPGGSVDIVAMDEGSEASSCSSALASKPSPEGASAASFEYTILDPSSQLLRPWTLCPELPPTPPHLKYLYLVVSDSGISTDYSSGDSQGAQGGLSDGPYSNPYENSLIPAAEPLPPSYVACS
Put plainly: cell-based or functional assay.

Experiment [2] concerns the target T2, chimeric receptor comprising the extra-cellular portion of the human EPO receptor to the intra-cellular … (human, UniProt P19235 25-250; Q99062 651-836, limits assumed).
T2 sequence (looked up): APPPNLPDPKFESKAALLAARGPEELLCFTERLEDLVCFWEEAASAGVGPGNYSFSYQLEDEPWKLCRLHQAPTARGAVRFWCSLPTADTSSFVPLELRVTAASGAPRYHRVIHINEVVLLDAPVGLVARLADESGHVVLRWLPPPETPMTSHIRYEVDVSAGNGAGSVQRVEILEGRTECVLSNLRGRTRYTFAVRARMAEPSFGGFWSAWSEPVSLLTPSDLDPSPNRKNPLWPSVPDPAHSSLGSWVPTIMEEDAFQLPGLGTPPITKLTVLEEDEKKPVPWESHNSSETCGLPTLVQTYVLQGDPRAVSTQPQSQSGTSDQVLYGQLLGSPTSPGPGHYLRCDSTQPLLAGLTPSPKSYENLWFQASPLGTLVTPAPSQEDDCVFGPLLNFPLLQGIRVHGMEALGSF
As to the kind of experiment: cell-based or functional assay.

In experiment [3] the target is T3, Recombinant Human EPO R/Fc Chimera (human, UniProt P19235 25-250).
T3 construct: extracellular domain; Bought from R&D Systems, catalog number 963-ER; also called recombinant EPOr extracellular domain fused to the Fc portion of human IgG1; recombinant erythropoietin receptor; not shown: Fc portion of human IgG1
T3 sequence (looked up): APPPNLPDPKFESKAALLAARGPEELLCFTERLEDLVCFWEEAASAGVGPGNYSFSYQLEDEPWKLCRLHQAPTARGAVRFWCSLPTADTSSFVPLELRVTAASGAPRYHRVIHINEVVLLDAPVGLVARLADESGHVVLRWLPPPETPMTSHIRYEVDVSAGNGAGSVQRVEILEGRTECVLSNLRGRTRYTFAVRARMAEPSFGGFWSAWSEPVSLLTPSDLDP
Put plainly: radioligand competition; competitor 125I-EPO; EPO R/Fc chimera captured on protein-G Sepharose.

The target of experiment [4] is recombinant EPO-R (produced in Chinese Hamster Ovary cells as a fusion protein to a portion of the human … (human, UniProt P05187 490-506)). As to the kind of experiment: competitive binding; the column head says only 'IC50'; taken as the AlphaQuest bead proximity assay against the biotinylated tracer SEQ ID NO: 4, by paragraph 206.
Experiment [5] deals with T1, human EPO-R. Put plainly: cell-based or functional assay. This is another data set of the same source.
The target in experiment [6] is T2, chimeric receptor comprising the …. As to the kind of experiment: cell-based or functional assay. The source holds these as a separate data set.

B1: Peptide I (SEQ ID NO: 2) (peptide)
peptide: Ac-XGLYACHMGPIT[1Nal]VCQPLR[Sar]K
modifications: disulfide 6-15; not fully specified (residues 1, 21); printed as (AcG)GLYACHMGPIT(1-nal)VCQPLR(MeG)K; also: homodimer joined by a branched tertiary amide linker on the epsilon-N of Lys21, PEG attached through a spacer, exact linker and PEG structure not readable
notes: The exact structure (linker, spacer, PEG size, carbamate or amide linkage) stands only in drawing CHEM-US-00099, which is not readable here
Take B1: the “Proliferation EC50” value in the experiment with human EPO-R [1] is 0.165 nM. In addition, in experiment [2], the “Reporter EC50” value was determined as 0.195 nM. For the same molecule, in experiment [3], the IC50 came to 0.111 nM.

B2: Peptide II (SEQ ID NO: 3) (peptide)
peptide: Ac-XGLYACHMGPIT[1Nal]VCQPLR[Sar]
modifications: disulfide 6-15 (inferred); not fully specified (residue 1); printed as (AcG)GLYACHMGPIT(1-nal)VCQPLR(MeG); also: homodimer, C-termini joined to alpha- and epsilon-amino groups of a lysine linker, PEG attached through a spacer, linkage and PEG size not readable
notes: What sets it apart from Peptide III (PEG linkage or size) stands only in drawing CHEM-US-00080
On to B2, for which, in experiment [4], the IC50 was 0.11 nM.

B3: Peptide III (SEQ ID NO: 3) (peptide)
peptide: Ac-XGLYACHMGPIT[1Nal]VCQPLR[Sar]
modifications: disulfide 6-15; not fully specified (residue 1); printed as (AcG)GLYACHMGPIT(1-nal)VCQPLR(MeG); also: homodimer, C-termini joined to alpha- and epsilon-amino groups of a lysine linker, PEG attached through a spacer, linkage and PEG size not readable
Consider B3, for which the “Proliferation EC50” value with human EPO-R [5] worked out at 72 nM. Also, in experiment [6], the “Reporter EC50” value was found to be 0.15 nM.

The values are drawn from patent US20080081783A1 (published 2008).
